Experiment [1] addresses T1, human CD73 expressed at the surface of cells (human, UniProt P21589 27-549).
T1 construct: T cells in the proliferation assays; also called huCD73; CD73-expressing cells
T1 sequence: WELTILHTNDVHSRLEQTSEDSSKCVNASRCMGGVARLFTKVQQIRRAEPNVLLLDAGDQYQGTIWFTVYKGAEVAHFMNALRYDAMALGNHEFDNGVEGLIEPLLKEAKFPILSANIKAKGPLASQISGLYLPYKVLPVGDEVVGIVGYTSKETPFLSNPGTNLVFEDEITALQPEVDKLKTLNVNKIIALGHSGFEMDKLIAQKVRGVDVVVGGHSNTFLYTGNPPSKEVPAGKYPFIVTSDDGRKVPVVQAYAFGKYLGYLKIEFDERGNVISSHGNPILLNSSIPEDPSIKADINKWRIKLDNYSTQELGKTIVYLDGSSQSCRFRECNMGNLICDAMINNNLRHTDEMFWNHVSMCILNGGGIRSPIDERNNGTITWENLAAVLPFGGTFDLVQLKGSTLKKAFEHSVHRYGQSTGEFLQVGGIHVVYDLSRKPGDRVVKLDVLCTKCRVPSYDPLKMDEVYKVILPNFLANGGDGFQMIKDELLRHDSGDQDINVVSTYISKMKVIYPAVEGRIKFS
Put plainly: flow cytometry titration on transfected cells expressing human CD73, PE goat anti-human IgG (H+L) detection, MFI.

The target in experiment [2] is T2, human recombinant soluble CD73 protein (human, UniProt P21589 27-547).
T2 construct: also called huCD73; rhCD73
T2 sequence: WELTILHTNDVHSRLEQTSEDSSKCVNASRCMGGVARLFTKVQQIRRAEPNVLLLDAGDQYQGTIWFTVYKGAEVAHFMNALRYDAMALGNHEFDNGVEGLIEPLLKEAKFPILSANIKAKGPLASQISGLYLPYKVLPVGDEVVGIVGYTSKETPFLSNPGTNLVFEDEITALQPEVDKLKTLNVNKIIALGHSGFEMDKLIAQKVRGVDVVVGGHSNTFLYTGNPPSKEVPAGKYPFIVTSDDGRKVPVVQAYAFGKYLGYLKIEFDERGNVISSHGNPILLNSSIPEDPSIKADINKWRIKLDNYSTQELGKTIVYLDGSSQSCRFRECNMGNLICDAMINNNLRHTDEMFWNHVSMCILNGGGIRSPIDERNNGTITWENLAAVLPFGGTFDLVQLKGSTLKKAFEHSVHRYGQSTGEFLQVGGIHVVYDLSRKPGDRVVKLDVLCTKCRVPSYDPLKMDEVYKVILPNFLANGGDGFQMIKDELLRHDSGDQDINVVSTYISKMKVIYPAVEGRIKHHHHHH
The experiment in a line: SPR, Ab captured on Protein A, soluble huCD73 as analyte. The protocol:
SPR measurements were performed on a Biacore™ T200 apparatus at 25° C. Protein-A (GE Healthcare) was immobilized on a Sensor Chip CM5 (GE Healthcare). […] The entire sensorgram sets were fitted using the 1:1 kinetic binding model. Bivalent affinities and kinetic association and dissociation rate constants are calculated.
The binding of the antibodies in Table 2 of Example 1 were tested for binding to human soluble dimeric CD73 proteins and were cloned, produced and purified. Affinity and association and dissociation constants of humanized variants were assessed by SPR analysis.
Background: SPR reads the build-up and loss of mass on a sensor chip optically.

Experiment [3] deals with T3, cynomolgus CD73 expressed on transfected cells (cynomolgus monkey (Macaca fascicularis)).
T3 construct: cell-surface expressed on a transfected cell line; Same protein as m38, which is the recombinant soluble form; It is kept apart from m38 as the first reading kept m36 and m37 apart for human CD73; also called cynomolgus CD73 protein (cell surface); cyCD73
The experiment in a line: flow cytometry titration on transfected cells expressing cynomolgus CD73, PE goat anti-human IgG (H+L) detection, MFI. In general terms: A flow cytometer gives signals particle by particle.

What is called EC50 (read off the curve) is the concentration at which the effect is half-maximal. What is called Kd is the equilibrium constant for the complex coming apart. For orientation: koff means a measure of how fast the partners let go of each other. As a reminder, the kon is the second-order rate constant of association.

B1: H1L0 (antibody, human IgG1, V domains shown)
VH: QIQLVQSGAEVKKPGASVKVSCKASGYTFTSYNMYWVRQAPGQRLEWMGYIDPYNGGSSYNLTFKGRVTITRDKSASTAYMELSSLRSEDTAVYYCARGYGNYKAWFAYWGQGTLVTVSS
VL: DIQMTQSPSSLSASVGDRVTITCKASQSVSNDVAWYQQKPGKAPKLLIYYASTRYTGVPSRFSGSGSGTDFTFTISSLQPEDIATYYCQQDYSSLTFGQGTKLEIK
notes: L0 VL limits counted by alignment with L1
Consider B1, for which the concentration giving a half-maximal response (EC50 (read off the curve)) in experiment [1] was about 0.2 µg/mL. In experiment [2], the dissociation constant (Kd) was 28.7 nM, the koff was 0.00296 s⁻¹ and the kon is 103000 M⁻¹ s⁻¹.

B2: H4L1 (antibody, human IgG1, V domains shown)
VH: QIQLVQSGAEVKKPGASVKVSCKASGYAFASYNMYWVRQAPGQSLEWIGYIDPYNGGSSYNLTFKGKATLTVDKSASTAYMELSSLRSEDTAVYYCARGYGNYKAWFAYWGQGTLVTVSS
VL: DIQMTQSPSSLSASVGDRVTITCKASQSVSNDVAWYQQKPGKAPKLLIYYASTRYTGVPSRFSGSGYGTDFTFTISSLQPEDIATYYCQQDYSSLTFGQGTKLEIK
In the case of B2, in experiment [2], the dissociation constant Kd is 1.7 nM, the koff came to 0.000179 s⁻¹ and the kon came out at 106000 M⁻¹ s⁻¹. In addition, the “EC50 (read off the curve)” value in experiment [3] is about 0.2 µg/mL.

B3: H3L1 (antibody, human IgG1, V domains shown)
VH: QIQLVQSGAEVKKPGASVKVSCKASGYAFTSYNMYWVRQAPGQSLEWIGYIDPYNGGSSYNLTFKGKATITVDKSASTAYMELSSLRSEDTAVYYCARGYGNYKAWFAYWGQGTLVTVSS
VL: DIQMTQSPSSLSASVGDRVTITCKASQSVSNDVAWYQQKPGKAPKLLIYYASTRYTGVPSRFSGSGYGTDFTFTISSLQPEDIATYYCQQDYSSLTFGQGTKLEIK
Take B3: in experiment [1], the “EC50 (read off the curve)” value is about 0.3 µg/mL. In addition, in experiment [2], the dissociation constant Kd is 1.8 nM, the koff amounted to 0.00014 s⁻¹ and the kon stood at 78900 M⁻¹ s⁻¹.

B4: H1L2 (antibody, human IgG1, V domains shown)
VH: QIQLVQSGAEVKKPGASVKVSCKASGYTFTSYNMYWVRQAPGQRLEWMGYIDPYNGGSSYNLTFKGRVTITRDKSASTAYMELSSLRSEDTAVYYCARGYGNYKAWFAYWGQGTLVTVSS
VL: DIQMTQSPSSLSASVGDRVTITCKASQSVSNDVAWYQQKPGKAPKLLIYYASTRYTGVPDRFSGSGYGTDFTFTISSLQPEDIATYYCQQDYSSLTFGQGTKLEIK
B4: in experiment [2], the Kd was 0.6 nM, the off-rate (koff) turned out to be 8.38e-05 s⁻¹ and the kon came out at 135000 M⁻¹ s⁻¹. Besides, the “EC50 (read off the curve)” value in experiment [3] is about 0.2 µg/mL.

B5: H2L0 (antibody, human IgG1, V domains shown)
VH: QIQLVQSGAEVKKPGASVKVSCKASGYAFTSYNMYWVRQAPGQSLEWMGYIDPYNGGSSYNLTFKGRVTITVDKSASTAYMELSSLRSEDTAVYYCARGYGNYKAWFAYWGQGTLVTVSS
VL: DIQMTQSPSSLSASVGDRVTITCKASQSVSNDVAWYQQKPGKAPKLLIYYASTRYTGVPSRFSGSGSGTDFTFTISSLQPEDIATYYCQQDYSSLTFGQGTKLEIK
notes: as for B1
As for B5, the “EC50 (read off the curve)” value in experiment [1] and in experiment [3] was about 0.2 µg/mL throughout.

B6: H3L0 (antibody, human IgG1, V domains shown)
VH: QIQLVQSGAEVKKPGASVKVSCKASGYAFTSYNMYWVRQAPGQSLEWIGYIDPYNGGSSYNLTFKGKATITVDKSASTAYMELSSLRSEDTAVYYCARGYGNYKAWFAYWGQGTLVTVSS
VL: DIQMTQSPSSLSASVGDRVTITCKASQSVSNDVAWYQQKPGKAPKLLIYYASTRYTGVPSRFSGSGSGTDFTFTISSLQPEDIATYYCQQDYSSLTFGQGTKLEIK
notes: as for B1
On to B6, for which the “EC50 (read off the curve)” value in experiment [1] was about 0.2 µg/mL. In experiment [2], the Kd came out at 29.4 nM, the koff came to 0.00797 s⁻¹ and the kon amounted to 271000 M⁻¹ s⁻¹. Also, the “EC50 (read off the curve)” value in experiment [3] is about 0.2 µg/mL.

B7: H1L1 (antibody, human IgG1, V domains shown)
VH: QIQLVQSGAEVKKPGASVKVSCKASGYTFTSYNMYWVRQAPGQRLEWMGYIDPYNGGSSYNLTFKGRVTITRDKSASTAYMELSSLRSEDTAVYYCARGYGNYKAWFAYWGQGTLVTVSS
VL: DIQMTQSPSSLSASVGDRVTITCKASQSVSNDVAWYQQKPGKAPKLLIYYASTRYTGVPSRFSGSGYGTDFTFTISSLQPEDIATYYCQQDYSSLTFGQGTKLEIK
With B7, in experiment [2], the Kd came out at 0.8 nM, the koff turned out to be 8.43e-05 s⁻¹ and the kon is 100000 M⁻¹ s⁻¹. Besides, the “EC50 (read off the curve)” value in experiment [3] is about 0.2 µg/mL.

B8: H4L4 (antibody, human IgG1, V domains shown)
VH: QIQLVQSGAEVKKPGASVKVSCKASGYAFASYNMYWVRQAPGQSLEWIGYIDPYNGGSSYNLTFKGKATLTVDKSASTAYMELSSLRSEDTAVYYCARGYGNYKAWFAYWGQGTLVTVSS
VL: DVQMTQSPSSLSASVGDRVTITCKASQSVSNDVAWYQQKPGKAPKLLIYYASTRYTGVPDRFSGSGYGTDFTFTISSLQPEDIATYFCQQDYSSLTFGQGTKLEIK
For B8, in experiment [2], the Kd amounted to 1.2 nM, the off-rate constant (koff) came out at 7.14e-05 s⁻¹ and the kon was 60100 M⁻¹ s⁻¹.

B9: H2L1 (antibody, human IgG1, V domains shown)
VH: QIQLVQSGAEVKKPGASVKVSCKASGYAFTSYNMYWVRQAPGQSLEWMGYIDPYNGGSSYNLTFKGRVTITVDKSASTAYMELSSLRSEDTAVYYCARGYGNYKAWFAYWGQGTLVTVSS
VL: DIQMTQSPSSLSASVGDRVTITCKASQSVSNDVAWYQQKPGKAPKLLIYYASTRYTGVPSRFSGSGYGTDFTFTISSLQPEDIATYYCQQDYSSLTFGQGTKLEIK
As for B9, the “EC50 (read off the curve)” value in experiment [1] was about 0.1 µg/mL. Also, in experiment [2], the Kd turned out to be 1.4 nM, the koff was 0.000118 s⁻¹ and the association rate constant (kon) was 83700 M⁻¹ s⁻¹.

B10: chimeric parental 3C12 antibody (antibody, human IgG1, V domains shown)
VH: QIQLQQSGPELVKPGASVKVSCKASGYAFASYNMNWVKQSHGKSLDWIGYIDPYNGGSSYNLTFKGKATLTVDKSSTTAYMHLNSLTSEDSAVYYCARGYGNYKAWFAYWGQGTLVTVSA
VL: DVVMTQTPKFLLVSAGDRVTITCKASQSVSNDVAWYQQKPGQSPKLLIYYASTRYTGVPDRFTGSGYGTDFTFTISTVQAEDLAVYFCQQDYSSLTFGAGTKLELK
notes: also called HPLP; parental antibody 3C12
Turning to B10, in experiment [2], the Kd came out at 0.68 nM. Further, the “EC50 (read off the curve)” value in experiment [3] is about 0.2 µg/mL.

Source of the values: US20220041744A1 (INNATE PHARMA, published 2022).
